T1: Human CD3eg linker (human)
T1 construct: Single-chain construct; also called recombinant human CD3
T1 chain: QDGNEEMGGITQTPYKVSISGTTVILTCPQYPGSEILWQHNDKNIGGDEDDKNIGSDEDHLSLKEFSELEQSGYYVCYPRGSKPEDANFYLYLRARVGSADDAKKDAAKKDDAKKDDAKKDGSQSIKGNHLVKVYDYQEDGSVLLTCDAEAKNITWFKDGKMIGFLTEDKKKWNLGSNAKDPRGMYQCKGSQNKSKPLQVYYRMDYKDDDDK


Target: T1, Human CD3eg linker
Assay: SPR; fold vs parent H183/L072

| Binder | fold change of affinity [fold] |
| --- | --- |
| H183/L072 VL S52E (antibody, name in Kabat numbering, V domains shown) VH: QVQLVESGGGLVQPGRSLRLSCAASGFTFSNAWMHWVRQAPGKGLEWVAQIKDKGNAYAAYYAPSVKGRFTISRDDSKNSIYLQMNSLKTEDTAVYYCHYVHYASASTVLPAFGVDAWGQGTTVTVSS VL: DIVMTQSPLSLPVTPGEPASISCQASQELVHMNRNTYLHWYQQKPGQAPRLLIYKVENRFPGVPDRFSGSGSGTDFTLKISRVEAEDVGVYYCAQGTSVPFTFGQGTKLEIK | 1 |
| H183/L072 VL S52F (antibody, name in Kabat numbering, V domains shown) VH: QVQLVESGGGLVQPGRSLRLSCAASGFTFSNAWMHWVRQAPGKGLEWVAQIKDKGNAYAAYYAPSVKGRFTISRDDSKNSIYLQMNSLKTEDTAVYYCHYVHYASASTVLPAFGVDAWGQGTTVTVSS VL: DIVMTQSPLSLPVTPGEPASISCQASQELVHMNRNTYLHWYQQKPGQAPRLLIYKVFNRFPGVPDRFSGSGSGTDFTLKISRVEAEDVGVYYCAQGTSVPFTFGQGTKLEIK | 1.6 |
| H183/L072 VL S52L (antibody, name in Kabat numbering, V domains shown) VH: QVQLVESGGGLVQPGRSLRLSCAASGFTFSNAWMHWVRQAPGKGLEWVAQIKDKGNAYAAYYAPSVKGRFTISRDDSKNSIYLQMNSLKTEDTAVYYCHYVHYASASTVLPAFGVDAWGQGTTVTVSS VL: DIVMTQSPLSLPVTPGEPASISCQASQELVHMNRNTYLHWYQQKPGQAPRLLIYKVLNRFPGVPDRFSGSGSGTDFTLKISRVEAEDVGVYYCAQGTSVPFTFGQGTKLEIK | 1.6 |
| H183/L072 VL S52R (antibody, name in Kabat numbering, V domains shown) VH: QVQLVESGGGLVQPGRSLRLSCAASGFTFSNAWMHWVRQAPGKGLEWVAQIKDKGNAYAAYYAPSVKGRFTISRDDSKNSIYLQMNSLKTEDTAVYYCHYVHYASASTVLPAFGVDAWGQGTTVTVSS VL: DIVMTQSPLSLPVTPGEPASISCQASQELVHMNRNTYLHWYQQKPGQAPRLLIYKVRNRFPGVPDRFSGSGSGTDFTLKISRVEAEDVGVYYCAQGTSVPFTFGQGTKLEIK | 1.8 |
| H183/L072 VL S52W (antibody, name in Kabat numbering, V domains shown) VH: QVQLVESGGGLVQPGRSLRLSCAASGFTFSNAWMHWVRQAPGKGLEWVAQIKDKGNAYAAYYAPSVKGRFTISRDDSKNSIYLQMNSLKTEDTAVYYCHYVHYASASTVLPAFGVDAWGQGTTVTVSS VL: DIVMTQSPLSLPVTPGEPASISCQASQELVHMNRNTYLHWYQQKPGQAPRLLIYKVWNRFPGVPDRFSGSGSGTDFTLKISRVEAEDVGVYYCAQGTSVPFTFGQGTKLEIK | 1.4 |
| H183/L072 VL S52H (antibody, name in Kabat numbering, V domains shown) VH: QVQLVESGGGLVQPGRSLRLSCAASGFTFSNAWMHWVRQAPGKGLEWVAQIKDKGNAYAAYYAPSVKGRFTISRDDSKNSIYLQMNSLKTEDTAVYYCHYVHYASASTVLPAFGVDAWGQGTTVTVSS VL: DIVMTQSPLSLPVTPGEPASISCQASQELVHMNRNTYLHWYQQKPGQAPRLLIYKVHNRFPGVPDRFSGSGSGTDFTLKISRVEAEDVGVYYCAQGTSVPFTFGQGTKLEIK | 1.7 |
| H183/L072 VL S52G (antibody, name in Kabat numbering, V domains shown) VH: QVQLVESGGGLVQPGRSLRLSCAASGFTFSNAWMHWVRQAPGKGLEWVAQIKDKGNAYAAYYAPSVKGRFTISRDDSKNSIYLQMNSLKTEDTAVYYCHYVHYASASTVLPAFGVDAWGQGTTVTVSS VL: DIVMTQSPLSLPVTPGEPASISCQASQELVHMNRNTYLHWYQQKPGQAPRLLIYKVGNRFPGVPDRFSGSGSGTDFTLKISRVEAEDVGVYYCAQGTSVPFTFGQGTKLEIK | 1.4 |
| H183/L072 VL S52N (antibody, name in Kabat numbering, V domains shown) VH: QVQLVESGGGLVQPGRSLRLSCAASGFTFSNAWMHWVRQAPGKGLEWVAQIKDKGNAYAAYYAPSVKGRFTISRDDSKNSIYLQMNSLKTEDTAVYYCHYVHYASASTVLPAFGVDAWGQGTTVTVSS VL: DIVMTQSPLSLPVTPGEPASISCQASQELVHMNRNTYLHWYQQKPGQAPRLLIYKVNNRFPGVPDRFSGSGSGTDFTLKISRVEAEDVGVYYCAQGTSVPFTFGQGTKLEIK | 1.5 |
| H183/L072 VL S52I (antibody, name in Kabat numbering, V domains shown) VH: QVQLVESGGGLVQPGRSLRLSCAASGFTFSNAWMHWVRQAPGKGLEWVAQIKDKGNAYAAYYAPSVKGRFTISRDDSKNSIYLQMNSLKTEDTAVYYCHYVHYASASTVLPAFGVDAWGQGTTVTVSS VL: DIVMTQSPLSLPVTPGEPASISCQASQELVHMNRNTYLHWYQQKPGQAPRLLIYKVINRFPGVPDRFSGSGSGTDFTLKISRVEAEDVGVYYCAQGTSVPFTFGQGTKLEIK | 1.5 |
| H183/L072 VL S52M (antibody, name in Kabat numbering, V domains shown) VH: QVQLVESGGGLVQPGRSLRLSCAASGFTFSNAWMHWVRQAPGKGLEWVAQIKDKGNAYAAYYAPSVKGRFTISRDDSKNSIYLQMNSLKTEDTAVYYCHYVHYASASTVLPAFGVDAWGQGTTVTVSS VL: DIVMTQSPLSLPVTPGEPASISCQASQELVHMNRNTYLHWYQQKPGQAPRLLIYKVMNRFPGVPDRFSGSGSGTDFTLKISRVEAEDVGVYYCAQGTSVPFTFGQGTKLEIK | 1.4 |
| H183/L072 VL S52V (antibody, name in Kabat numbering, V domains shown) VH: QVQLVESGGGLVQPGRSLRLSCAASGFTFSNAWMHWVRQAPGKGLEWVAQIKDKGNAYAAYYAPSVKGRFTISRDDSKNSIYLQMNSLKTEDTAVYYCHYVHYASASTVLPAFGVDAWGQGTTVTVSS VL: DIVMTQSPLSLPVTPGEPASISCQASQELVHMNRNTYLHWYQQKPGQAPRLLIYKVVNRFPGVPDRFSGSGSGTDFTLKISRVEAEDVGVYYCAQGTSVPFTFGQGTKLEIK | 1.6 |
| H183/L072 VL S52T (antibody, name in Kabat numbering, V domains shown) VH: QVQLVESGGGLVQPGRSLRLSCAASGFTFSNAWMHWVRQAPGKGLEWVAQIKDKGNAYAAYYAPSVKGRFTISRDDSKNSIYLQMNSLKTEDTAVYYCHYVHYASASTVLPAFGVDAWGQGTTVTVSS VL: DIVMTQSPLSLPVTPGEPASISCQASQELVHMNRNTYLHWYQQKPGQAPRLLIYKVTNRFPGVPDRFSGSGSGTDFTLKISRVEAEDVGVYYCAQGTSVPFTFGQGTKLEIK | 1.3 |
| H183/L072 VL S52K (antibody, name in Kabat numbering, V domains shown) VH: QVQLVESGGGLVQPGRSLRLSCAASGFTFSNAWMHWVRQAPGKGLEWVAQIKDKGNAYAAYYAPSVKGRFTISRDDSKNSIYLQMNSLKTEDTAVYYCHYVHYASASTVLPAFGVDAWGQGTTVTVSS VL: DIVMTQSPLSLPVTPGEPASISCQASQELVHMNRNTYLHWYQQKPGQAPRLLIYKVKNRFPGVPDRFSGSGSGTDFTLKISRVEAEDVGVYYCAQGTSVPFTFGQGTKLEIK | 1.9 |
| H183/L072 VL S52Q (antibody, name in Kabat numbering, V domains shown) VH: QVQLVESGGGLVQPGRSLRLSCAASGFTFSNAWMHWVRQAPGKGLEWVAQIKDKGNAYAAYYAPSVKGRFTISRDDSKNSIYLQMNSLKTEDTAVYYCHYVHYASASTVLPAFGVDAWGQGTTVTVSS VL: DIVMTQSPLSLPVTPGEPASISCQASQELVHMNRNTYLHWYQQKPGQAPRLLIYKVQNRFPGVPDRFSGSGSGTDFTLKISRVEAEDVGVYYCAQGTSVPFTFGQGTKLEIK | 1.4 |
